Test results: the supplement of paper PMC9732359
± gives the uncertainty stated by the source.

Test: protein stability index of a GFP-peptide fusion (yeast GPS) (PSI 1-4); higher = more stable; sorted into four equal gates, so the index is relative within each strain
In short: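 Tiled 17-residue peptides from yeast proteins were fused downstream of GFP on a plasmid that also expresses Cherry, and the pooled library was carried in yeast. Mid-log cultures grown in leucine-free medium were sorted into four equal gates by GFP/Cherry fluorescence ratio. Plasmids from each gate were PCR-amplified and Illumina-sequenced, and reads were assigned to strains by barcodes. Each peptide's protein stability index is the sum, over gates, of the gate's read frequency multiplied by its gate number.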

Sequence | protein stability index (doa10∆) | protein stability index (pdr5∆) | protein stability index (san1∆) | protein stability index (ubr1∆)
LTFVSVDEELGPSIYKT [SCL1] | 2.37 ± 0.065 | 1.94 ± 0.05 | 3.02 ± 0.054 | 2.99 ± 0.067
VDNTTEQSNSRKRTRSE [YCG1] | 3.27 ± 0.18 | – | 2.83 ± 0.1 | –
VKKASGEIVSINQINEA [RPL20A] | 2.89 ± 0.1 | 2.82 ± 0.092 | 2.81 ± 0.062 | 2.79 ± 0.066
NQQQQQQQQQQQQRRQL [GAL11] | 2.79 ± 0.056 | 2.9 ± 0.063 | 2.84 ± 0.043 | 2.91 ± 0.051
HAPAYHRSKKDQDQYLE [IRR1] | – | 3.56 ± 0.3 | 2.95 ± 0.19 | –
IRCHREDCDLVIMALML [POP5] | 2.45 ± 0.053 | 2.65 ± 0.064 | 2.01 ± 0.091 | 2.81 ± 0.047
KTFEIKEIKTNEYVIKT [YMR129W/POM152] | 2.58 ± 0.1 | 2.25 ± 0.089 | 1.92 ± 0.091 | 2.02 ± 0.047
KDEETTEKARLIDFEYV [RRI2] | 3.21 ± 0.098 | 3.5 ± 0.14 | 3.56 ± 0.073 | 3.13 ± 0.11
NQSSFNFGNNGAGGLNP [YOR098C/NUP1] | 3.15 ± 0.069 | 3.1 ± 0.076 | 3.2 ± 0.045 | 3.25 ± 0.064
QDDDFPLDDAGTIGWDL [MCD1] | 3.04 ± 0.08 | 3.25 ± 0.081 | 3.36 ± 0.06 | 3.06 ± 0.068
IDGCVKIGDLGLARKFH [SSN3] | 2.98 ± 0.078 | 3.33 ± 0.08 | 3.14 ± 0.058 | 3.37 ± 0.043
FATTKAECISLICSIGL [ECM29] | 1.5 ± 0.059 | 1.97 ± 0.056 | 1.65 ± 0.13 | 1.77 ± 0.05
GTIKKIEQFAMRRNSKI [POP5] | 2.79 ± 0.065 | 2.73 ± 0.05 | 2.6 ± 0.059 | 2.69 ± 0.039
SSLSFGPENALNVYHYF [YJL039C/NUP192] | 1.94 ± 0.031 | 2.11 ± 0.038 | 2.04 ± 0.05 | 2.67 ± 0.029
DKIHARARGPMQVLTRQ [RPB2] | 3.16 ± 0.13 | 3.22 ± 0.12 | 2.97 ± 0.09 | 3.21 ± 0.19
KAPLEDDDKKPDDDKIV [RPT1] | 2.67 ± 0.15 | 3.11 ± 0.17 | 3.19 ± 0.14 | 3.26 ± 0.067
ATASAIAATAVASLVLA [RPL4A] | 2.37 ± 0.1 | 1.78 ± 0.071 | 1.91 ± 0.17 | 1.88 ± 0.082
DTSNWELSDSWRAHDSS [YGL100W/SEH1] | 3.29 ± 0.068 | 3.37 ± 0.058 | 3.4 ± 0.036 | 3.31 ± 0.037
YTLTEEGVEYLREYLNL [RPS10A] | 3.28 ± 0.11 | 3.37 ± 0.095 | 3.51 ± 0.16 | 3.39 ± 0.12
IPTNPVDNENNKPAIKE [SWI3] | 2.95 ± 0.074 | 3.1 ± 0.083 | 2.89 ± 0.11 | 3.21 ± 0.068
DKDNPVDSRNETDHKTN [SRB4] | 3.38 ± 0.14 | 2.85 ± 0.15 | 2.88 ± 0.086 | 3.3 ± 0.18
DLQRTQTLSEKEYQCSA [YIL149C/MLP2] | 2.98 ± 0.1 | 2.97 ± 0.091 | 3.11 ± 0.069 | 2.96 ± 0.069
SKVVIDSIIDNIVKLCF [IRR1] | 2.75 ± 0.079 | 2.32 ± 0.034 | 2.2 ± 0.089 | 2.45 ± 0.026
STSYHLNSTLESLYDLI [MED6] | 2.86 ± 0.12 | 2.62 ± 0.094 | 3 ± 0.084 | 2.51 ± 0.12
LKPVDKLKPMNIERKQT [SIN4] | 2.82 ± 0.11 | 3.05 ± 0.11 | 2.83 ± 0.088 | 3.04 ± 0.11
YLGEGPRMVRDVFRLAR [RPT3] | 2.79 ± 0.14 | 2.96 ± 0.053 | 2.8 ± 0.14 | 2.88 ± 0.09
